The results in this text go back to publication PMC8304084, “A Concerted Action of UBA5 C-Terminal Unstructured Regions Is Important for Transfer of Activated UFM1 to UFC1” (International Journal of Molecular Sciences, 2021).

Some results are limits rather than exact numbers.

Test [1] has as its target Full length UFC1, residues 1–167 (UniProt Q9Y3C8). The test can be described thus: ITC; VP-ITC, 25 °C; UBA5 peptides (~400 µM) titrated into 20–25 µM binding partner; 25 mM HEPES pH 7.5, 100 mM NaCl; one-site model; a single profile for each interaction. (In ITC the heat of successive injections is recorded.)
The target in test [2] is Full length UBA5 (res. 1–404) C250K mutant stably conjugated to UFM1 (UniProt Q9GZZ9). The test can be described thus: ITC; UFC1 titrated to FL^1–404 and to FL^1–404 C250K~UFM1; 25 °C; 25 mM HEPES pH 7.5, 100 mM NaCl; one-site model.
Test [3] addresses Full length UBA5, residues 1–404 (human) (UniProt Q9GZZ9). Described as above.

UBA5 C-terminal regions R2 and R3, residues 359–404, sequence (Q9GZZ9 other isoform, or with tags, fused parts or gaps): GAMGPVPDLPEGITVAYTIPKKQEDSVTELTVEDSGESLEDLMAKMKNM
Full length UBA5 (res. 1–404) C250K mutant stably conjugated to UFM1, sequence (Q9GZZ9 whole entry C250K, chain 1 of 2, the tested form may be a part): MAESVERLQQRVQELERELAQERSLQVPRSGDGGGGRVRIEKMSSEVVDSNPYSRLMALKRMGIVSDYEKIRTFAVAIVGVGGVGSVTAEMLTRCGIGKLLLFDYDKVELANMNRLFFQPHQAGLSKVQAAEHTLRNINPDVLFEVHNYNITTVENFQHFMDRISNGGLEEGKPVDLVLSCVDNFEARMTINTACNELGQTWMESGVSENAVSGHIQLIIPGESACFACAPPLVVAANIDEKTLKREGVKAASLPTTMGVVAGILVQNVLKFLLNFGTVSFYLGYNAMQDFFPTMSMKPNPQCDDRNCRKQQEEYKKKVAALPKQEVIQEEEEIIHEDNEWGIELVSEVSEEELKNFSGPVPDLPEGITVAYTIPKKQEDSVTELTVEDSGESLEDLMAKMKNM
Full length UBA5 (res. 1–404) C250K mutant stably conjugated to UFM1, sequence (P61960 other isoform, or with tags, fused parts or gaps C250K, chain 2 of 2, further chain): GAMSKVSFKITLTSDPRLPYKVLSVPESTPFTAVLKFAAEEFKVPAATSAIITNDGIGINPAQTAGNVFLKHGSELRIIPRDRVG
UBA5 C-terminal region R2, residues 359–376, sequence (Q9GZZ9 other isoform, or with tags, fused parts or gaps): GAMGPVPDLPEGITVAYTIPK

As a reminder, the Kd is the concentration at which binding is half-saturated. A higher Kd goes with lower affinity. The substance “UBA5 C-terminal region R2, residues 359–376 (from UniProt Q9GZZ9 359-376) (peptide)” returned an equilibrium dissociation constant (Kd) in test [1] of more than 50 µM.

The stoichiometry N is the number of molecules, sites or subunits per partner or assembly. Turning to “UBA5 C-terminal part with A371E mutant (res. 325–404) (from UniProt Q9GZZ9 325-404) (domain or fragment)”, in test [1], the Ka was 600000 M⁻¹, the Kd was 1.6 µM, the dH is -7.78 kcal/mol and the stoichiometry N was determined as 1.03.

In test [1], “UBA5 C-terminal part, residues 325–404 (from UniProt Q9GZZ9 325-404) (domain or fragment)” had a Ka of 410000 M⁻¹, a Kd of 2.4 µM, a dH of -7.04 kcal/mol and a stoichiometry N of 1.03.

Consider “UBA5 C-terminal part with A371T mutant (res. 325–404) (from UniProt Q9GZZ9 325-404) (domain or fragment)”, for which, in test [1], the Ka was 540000 M⁻¹, the Kd is 1.8 µM, the dH was -7.88 kcal/mol and the stoichiometry N worked out at 1.03.

In test [1], “UBA5 C-terminal regions R2 and R3, residues 359–404 (from UniProt Q9GZZ9 359-404) (peptide)” yielded a Ka of 370000 M⁻¹, a Kd of 2.7 µM, a dH of -8.08 kcal/mol and a stoichiometry N of 0.97.

Turning to “Full length UFC1, residues 1–167 (from UniProt Q9Y3C8 1-167) (enzyme)”, in test [2], the Ka came out at 870000 M⁻¹, the Kd turned out to be 1.2 µM, the dH was -8.21 kcal/mol and the stoichiometry N was found to be 1.03. In addition, in test [3], the Ka was 720000 M⁻¹, the dissociation constant Kd was 1.4 µM, the dH was -7.62 kcal/mol and the stoichiometry N came to 0.97.
